Laboratory results as given in US20210198369A1 (DRAGONFLY THERAPEUTICS, published 2021).
“And” between values parts separate entries of the source, which are not always exact repeats. Identical values can stand only once.

T1: fusion protein of human NKG2D and murine Fc (human, UniProt P26718 78-216)
T1 construct: also called mFc-hNKG2D; not shown: murine Fc
T1 sequence (looked up): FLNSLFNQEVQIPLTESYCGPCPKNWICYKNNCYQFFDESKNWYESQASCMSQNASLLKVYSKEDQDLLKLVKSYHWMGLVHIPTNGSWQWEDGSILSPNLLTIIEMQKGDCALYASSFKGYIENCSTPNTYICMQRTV


Legend:
[1] = target: T2, HER2 (ErbB2) expressed on human cells (SkBr-3, NCI-H661, 786-O cancer cells; human cardiomyocytes) (human, UniProt P04626 23-1255); test: cell-based or functional assay
[2] = target: T1, fusion protein of human NKG2D and …; test: SPR at 37 C, steady state affinity fit, average of two independent experiments
Description: (§1) Steady state affinity fit was utilized to obtain the equilibrium affinity data.

[3] = target: T1, fusion protein of human NKG2D and …; test: SPR at 37 C, mFc-hNKG2D captured, TriNKET as analyte, steady state affinity fit
Description: as §1

[4] = target: T1, fusion protein of human NKG2D and …; test: SPR at 37 C, mFc-hNKG2D captured, TriNKET as analyte, steady state affinity fit; reference TriNKET A
Description: as §1

[5] = target: T1, fusion protein of human NKG2D and …; test: SPR at 37 C, steady state affinity fit, average of three independent experiments
Description: as §1

[6] = target: T2, HER2 (ErbB2) expressed on human cells …; test: flow cytometry on SkBr-3 cells, anti-human IgG secondary, % of maximum MFI
Description: (§2) All three cell lines were used to assess their binding affinity to TriNKET. TriNKETs were diluted in a series of concentrations, and were incubated with the respective cells.

[7] = target: T2, HER2 (ErbB2) expressed on human cells …; test: flow cytometry on H661 cells, anti-human IgG secondary, fold over background (control TriNKET)
Description: (§3) TriNKETs were diluted to 3.8e-4 to 100 μg/mL, and the dilutions were used as primary antibody stain. Binding of the TriNKET was detected using a fluorophore-conjugated anti-human IgG secondary antibody. Cells were analyzed by flow cytometry. Binding fluorescence intensity (MFI) to cells expressing HER2 was normalized to cells stained with a control (non-specific) TriNKET to obtain fold over background (FOB) values.

[8] = target: T2, HER2 (ErbB2) expressed on human cells …; test: flow cytometry on SKBR3 cells, anti-human IgG secondary, fold over background (control TriNKET)
Description: as §3

[9] = target: T2, HER2 (ErbB2) expressed on human cells …; test: flow cytometry on SkBr-3 cells, anti-human IgG secondary, fold over background (secondary only)
Description: as §2

[10] = target: T2, HER2 (ErbB2) expressed on human cells …; test: flow cytometry on human cardiomyocytes, anti-human IgG secondary, fold over background (control TriNKET)
Description: as §3

Row | EC50 (nM), % specific lysis of SKBR-3 target cells by KHYG-1-CD16V cells (DELFIA) [1] | Kd [2] | Kd [3] | fold reduced affinity compared to TriNKET A [4] | Kd [5] | EC50 (read off the curve) [6] | EC50 (read off the curve) [7] | EC50 (read off the curve) [8] | EC50 (read off the curve) [9] | EC50 (read off the curve) [10] | Binder
1 | 0.65 nM | 481 nM | 509 nM and 454 nM | < 2 fold | – | – | – | – | – | – | TriNKET A* (mutant form of TriNKET A having a substitution of Ile for the Met at position 102) (bispecific antibody, human IgG1, also called M102 variant) heavy: EVQLVESGGGLVKPGGSLRLSCAASGFTFSSYSMNWVRQAPGKGLEWVSSISSSSSYIYYADSVKGRFTISRDNAKNSLYLQMNSLRAEDTAVYYCARGAPIGAAAGWFDPWGQGTLVTVSSASTKGPSVFPLAPSSKSTSGGTAALGCLVKDYFPEPVTVSWNSGALTSGVHTFPAVLQSSGLYSLSSVVTVPSSSLGTQTYICNVNHKPSNTKVDKKVEPKSCDKTHTCPPCPAPELLGGPSVFLFPPKPKDTLMISRTPEVTCVVVDVSHEDPEVKFNWYVDGVEVHNAKTKPREEQYNSTYRVVSVLTVLHQDWLNGKEYKCKVSNKALPAPIEKTISKAKGQPREPQVCTLPPSRDELTENQVSLTCLVKGFYPSDIAVEWESNGQPENNYKTTPPVLDSDGSFFLYSWLTVDKSRWQQGNVFSCSVMHEALHNHYTQKSLSLSPG scFv: not shown light: DIQMTQSPSSVSASVGDRVTITCRASQGISSWLAWYQQKPGKAPKLLIYAASSLQSGVPSRFSGSGSGTDFTLTISSLQPEDFATYYCQQGVSFPRTFGGGTKVEIKRTVAAPSPPSDEQLKSGTASVVCLLNNFYPREAKVQWKVDNALQSGNSQESVTEQDSKDSTYSLSSTLTLSKADYEKHKVYACEVTHQGLSSPVTKSFNRGEC
2 | 0.39 nM | – | 370 nM and 328 nM and 313 nM | – | 337 nM | ~10 nM | ~0.3 µg/mL | ~0.3 µg/mL | ~10 nM | ~0.4 µg/mL | A49-F3'-TriNKET-Trastuzumab (bispecific antibody, human IgG1, also called TriNKET A; HER2-F3'-TriNKET-A49) heavy: EVQLVESGGGLVKPGGSLRLSCAASGFTFSSYSMNWVRQAPGKGLEWVSSISSSSSYIYYADSVKGRFTISRDNAKNSLYLQMNSLRAEDTAVYYCARGAPMGAAAGWFDPWGQGTLVTVSSASTKGPSVFPLAPSSKSTSGGTAALGCLVKDYFPEPVTVSWNSGALTSGVHTFPAVLQSSGLYSLSSVVTVPSSSLGTQTYICNVNHKPSNTKVDKKVEPKSCDKTHTCPPCPAPELLGGPSVFLFPPKPKDTLMISRTPEVTCVVVDVSHEDPEVKFNWYVDGVEVHNAKTKPREEQYNSTYRVVSVLTVLHQDWLNGKEYKCKVSNKALPAPIEKTISKAKGQPREPQVCTLPPSRDELTENQVSLTCLVKGFYPSDIAVEWESNGQPENNYKTTPPVLDSDGSFFLYSWLTVDKSRWQQGNVFSCSVMHEALHNHYTQKSLSLSPG scFv: not shown light: DIQMTQSPSSVSASVGDRVTITCRASQGISSWLAWYQQKPGKAPKLLIYAASSLQSGVPSRFSGSGSGTDFTLTISSLQPEDFATYYCQQGVSFPRTFGGGTKVEIKRTVAAPSPPSDEQLKSGTASVVCLLNNFYPREAKVQWKVDNALQSGNSQESVTEQDSKDSTYSLSSTLTLSKADYEKHKVYACEVTHQGLSSPVTKSFNRGEC
